Here are results for 3 molecules from patent US20250042956A1 (University of California, published 2025).

Assay [1] deals with T1, PIAL2 (yeast two hybrid GAL4 fusion) (Arabidopsis thaliana, UniProt F4JYG0 1-760).
T1 construct: cDNA cloned into Gateway Y2H vectors; not shown: GAL4-AD or GAL4-BD (pGADT7-GW / pGBKT7-GW)
T1 sequence: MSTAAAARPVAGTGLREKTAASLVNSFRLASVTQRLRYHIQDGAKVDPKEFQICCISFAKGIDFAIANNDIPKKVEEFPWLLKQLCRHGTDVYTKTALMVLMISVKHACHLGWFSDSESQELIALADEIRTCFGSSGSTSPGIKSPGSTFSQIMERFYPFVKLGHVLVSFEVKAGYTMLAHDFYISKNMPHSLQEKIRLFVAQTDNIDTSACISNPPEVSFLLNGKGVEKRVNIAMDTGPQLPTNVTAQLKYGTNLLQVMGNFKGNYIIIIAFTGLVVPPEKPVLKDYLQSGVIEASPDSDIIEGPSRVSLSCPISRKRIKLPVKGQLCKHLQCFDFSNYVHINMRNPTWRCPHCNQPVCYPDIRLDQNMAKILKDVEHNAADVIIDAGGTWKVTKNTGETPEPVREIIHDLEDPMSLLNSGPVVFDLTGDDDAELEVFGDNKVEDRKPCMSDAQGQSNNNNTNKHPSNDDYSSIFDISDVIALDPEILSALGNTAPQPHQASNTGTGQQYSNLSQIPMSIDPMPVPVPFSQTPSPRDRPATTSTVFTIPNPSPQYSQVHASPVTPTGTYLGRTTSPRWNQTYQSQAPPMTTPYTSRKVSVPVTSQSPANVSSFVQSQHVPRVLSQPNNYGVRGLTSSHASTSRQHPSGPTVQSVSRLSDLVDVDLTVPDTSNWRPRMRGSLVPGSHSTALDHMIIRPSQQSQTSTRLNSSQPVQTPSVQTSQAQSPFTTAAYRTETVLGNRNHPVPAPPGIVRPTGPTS
In words: yeast two hybrid. An excerpt:
The cDNA sequences of PIAL1, PIAL2, MOM2, MORC6, and MOM1 CMM2 domain (aa1660-aa1860, (see e.g., Han, Plant Cell Rep., 2016)) were first cloned into gateway entry vectors followed by LR reaction with pGBKT7-GW (Addgene 61703) and pGADT7-GW (Addgene 61702) destination vectors. Pairs of plasmid DNA for the desired protein interaction to be tested were co-transformed into the yeast strain AH109. Combinations of the empty pGBKT7-GW or pGADT7-GW vectors and the plasmids of desired proteins were used for transformation of yeast cells to test for self-activation. Transformed yeast cells were plated on synthetic dropout medium without Trp and Leu (SD-TL) and incubated for 2-3 days to allow for the growth of positive colonies carrying both plasmids. Three yeast colonies of each tested protein interaction pairs were picked and mixed in 150 μl 1×TE solution, and 3 μl of the 1×TE solution with the yeast cells were blotted on synthetic dropout medium without Trp, Leu, and His (SD-TLH) and with 5 mM 3-amino-1,2,4-triazole (3AT) to inhibit background growth. Growth of yeast on SD-TLH with 5 mM 3AT medium after 2-3 days of incubation indicates the interaction between the GAL4-AD fusion protein and the GAL4-BD fusion protein.

In assay [2] the target is T2, AT4G35510.1 TRBIP1 (Arabidopsis thaliana).
T2 construct: Endogenous protein found by mass spectrometry
T2 chain: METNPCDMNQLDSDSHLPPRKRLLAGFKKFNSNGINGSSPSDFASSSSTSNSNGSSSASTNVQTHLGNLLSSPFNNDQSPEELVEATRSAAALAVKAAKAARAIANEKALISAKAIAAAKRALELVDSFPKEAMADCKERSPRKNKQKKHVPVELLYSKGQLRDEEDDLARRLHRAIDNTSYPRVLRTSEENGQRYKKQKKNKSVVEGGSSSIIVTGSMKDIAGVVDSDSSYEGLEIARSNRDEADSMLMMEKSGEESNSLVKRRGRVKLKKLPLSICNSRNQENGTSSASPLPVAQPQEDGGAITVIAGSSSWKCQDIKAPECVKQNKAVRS
Briefly: IP-MS rep 1. The method, then:
(§1) The method of IP-MS used in this Example has been described in a recent paper (see e.g., Xue, Nat. Comm., 2021). Ten grams of unopened floral buds from Col-0 wild type and FLAG-tag transgenic plants, including PHD1, MOM1, AIPP3, MOM2, MORC6, PIAL2, TRB1, TRB2, TRB3, JMJ14, HD2A, HD2B, and ELF7 were collected and ground into fine powder with liquid nitrogen. These samples were resuspended with 25 mL IP buffer and homogenized until lump-free by dounce homogenizer. The lysate was filtered through Miracloth and incubated with 250 μL anti-FLAG M2 magnetic beads (Sigma) at 4° C. for 2 hours. The magnetic beads were washed with IP buffer and eluted with TBS containing 250 μg/mL 3×FLAG peptides. The eluted proteins were precipitated with trichloroacetic acid (Sigma) and subject to MS analyses as described previously (see e.g., Xue, Nat. Comm., 2021).

The target in assay [3] is T3, AT2G17540.2 TRBIP2 (Arabidopsis thaliana).
T3 construct: Endogenous protein found by mass spectrometry
T3 chain: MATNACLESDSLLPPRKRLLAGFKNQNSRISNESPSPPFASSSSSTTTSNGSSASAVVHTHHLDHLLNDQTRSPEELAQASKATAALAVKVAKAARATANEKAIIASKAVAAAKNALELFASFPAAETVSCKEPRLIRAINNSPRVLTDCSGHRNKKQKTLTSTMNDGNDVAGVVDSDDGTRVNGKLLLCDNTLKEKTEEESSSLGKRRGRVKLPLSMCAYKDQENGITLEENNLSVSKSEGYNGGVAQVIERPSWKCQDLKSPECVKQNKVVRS
In words: IP-MS rep 1. How it is done: as §1

The target in assay [4] is T2, AT4G35510.1 TRBIP1. Briefly: IP-MS rep 2. How it is done:
as §1

For assay [5], the target named is T3, AT2G17540.2 TRBIP2. Briefly: IP-MS rep 2. How it is done:
as §1

Assay [6] deals with T2, AT4G35510.1 TRBIP1. In words: X-link IP-MS.
The target of assay [7] is T3, AT2G17540.2 TRBIP2. Briefly: X-link IP-MS.

B1: MOM1 CMM2 domain (yeast two hybrid GAL4 fusion) (other, Arabidopsis thaliana, UniProt Q9M658 1660-1860, looked up)
chain: TSVAEPHISGSDACEMEISEPGPQVERSTFANLFHEGGVEHSAGVTALVPSLLNNGTEQIAVQPVPQIPFPVFNDPFLHELEKLRRESENSKKTFEEKKSILKAELERKMAEVQAEFRRKFHEVEAEHNTRTTKIEKDKNLVIMNKLLANAFLSKCTDKKVSPSGAPRGKIQQLAQRAAQVSALRNYIAPQQLQASSFPAP
notes: range 1660-1860; also called MOM1 CMM2 domain (aa1660-aa1860); not shown: GAL4-AD or GAL4-BD (pGADT7-GW / pGBKT7-GW)
In the case of B1, the binding result in assay [1] is recorded as “binds”.

B2: FLAG-TRB3 (other, not shown: small tags and cut ends)
chain: MGAPKLKWTPEEETALKAGVLKHGTGKWRTILSDPVYSTILKSRSNVDLKDKWRNISVTALWGSRKKAKLALKRTPLSGSRQDDNATAITIVSLANGDVGGQQIDAPSPPAGSCEPPRPSTSVDKIILEAITSLKRPFGPDGKSILMYIEENFKMQPDMKRLVTSRLKYLTNVGTLVKKKHKYRISQNYMAEGEGQRSPQLLLEGNKENTPKPEENGVKNLTKSQVGGEVMIMGMTEKEAAAAAARAVAEAEFAMAEAEEAAREADKAEAEAEAAHIFAKAAMKAVKYRMHSQTR
notes: FLAG-tagged TRB3 from its native promoter; tag position under the label FLAG-TRB3 not certain; also called TRB3-FLAG; TRB-FLAG
Take B2: the IP-MS count with AT4G35510.1 TRBIP1 [2] turned out to be 24; with AT2G17540.2 TRBIP2 [3], 16; with AT4G35510.1 TRBIP1 [4], 38; in the assay with AT2G17540.2 TRBIP2 [5], 20; in the assay with AT4G35510.1 TRBIP1 [6], 17; with AT2G17540.2 TRBIP2 [7], 3.

B3: MORC6 (yeast two hybrid GAL4 fusion) (other, Arabidopsis thaliana, UniProt Q56Y74 1-663, looked up)
chain: MSHDRSVNVSHDAVIAKPERGTMLQSFSPRSHGSKGYSLPQDSEENRGSVGQSAGQSSTSVVDQVRSPADDAGVTSSSTICPAPVCRQFWKAGSYNDELSSKSQQPNGKNYLHVHPMFLHSNATSHKWAFGAVAELLDNAVDEIQNGATFVIVDKTTNPRDGATALLIQDDGGGMDPQAMRHCMGFGFSDKKSDSAIGRYGNGFKTSTMRLGADVIVFSRHSKNQTLTQSIGLLSYTYLTRTGHDRIVVPILDYEFNASAGEFKTLQDREHFISSLSILLEWSPFSTEAELLQQFDDVGPHGTKVIIYNMWLNSDAKLELDFDSVAEDILIEGSIKKTGSKIVNDHIASRFSYSLRVYLSILYLRIPETFKIILRGKVVEHHNVADDLMHPQYILYKPQAAGSEEALVVTTIGFLKEAPKVNLHGFCVYHKNRLIMPFWQVINYSSSRGRGVVGVLEANFVEPTHNKQDFEKTVLLQKLENRLKEMTVEYWSCHCVLIGYQVNKKPRLQIPQKVQPAGRQALSPPPGFQAVFPQGNTTSLPRVSTQPVLLEKRKEHPDSVASAALKRKVGNDDFTVPGHIRVEQFIHGSASQSQDIETVKLMEENKKLRAKCLDRKVRSQNLEVKAMNLRSELENYKSEYERLMVELQALDLVKDEHRRNVNT
notes: cDNA cloned into Gateway Y2H vectors; not shown: GAL4-AD or GAL4-BD (pGADT7-GW / pGBKT7-GW)
Regarding B3, the binding result in assay [1] is reported as “binds”.
